Data taken from patent publication US11702475B2, “Cysteine engineered fibronectin type III domain binding molecules” (Janssen Biotech, Inc., priority 2013, dated 2023).

Legend:
NCI-H322 cells = experiment: NCI-H322 growth assay; type: cell-based, human; settings: 120 hours, CellTiter-Glo
Description: (§1) Inhibition of EGFR-dependent cell growth was assessed by measuring viability of the EGFR over-expressing human tumor cell lines, NCI-H292 and NCI-H322 (American Type Culture Collection, cat. #CRL-1848 & #CRL-5806, respectively), following exposure to EGFR-binding FN3 domains. Cells were plated at 500 cells/well (NCI-H292) or 1,000 cells/well (NCI-H322) in opaque white 96-well tissue culture-treated plates (Nunc) in 1004/well of RPMI medium (Gibco) containing GlutaMAX™ and 10 mM HEPES, supplemented with 10% heat inactivated fetal bovine serum (Gibco) and 1% penicillin/streptomycin (Gibco), and allowed to attach overnight at 37° C. in a humidified 5% CO2 atmosphere. Cells were treated by addition of 54/well of phosphate-buffered saline (PBS) containing a concentration range of EGFR-binding FN3 domains. […] Viable cells were detected by addition of 754/well of CellTiter-Glo® reagent (Promega), followed by mixing on a plate shaker for 2 minutes, and incubation in the dark at room temperature for a further 10 minutes. Plates were read on a SpectraMax M5 plate reader (Molecular Devices) set to luminescence mode, with a read time of 0.5 seconds/well against a blank of medium only. […] IC50 values were determined by fitting data to the equation for a sigmoidal dose response with variable slope using GraphPad Prism 4 (GraphPad Software).

[1] = biological target: T1, EGFR on A431 cells (EGF binding) (Homo sapiens, UniProt P00533); experiment: A431 cell EGF competition assay; settings: biotinylated EGF 30 ng/mL
T1 construct: A431 cells (American Type Culture Collection, cat. #CRL-1555) over-express EGFR; host or cells: A431
Description: To better characterize the mechanism of EGFR binding, the ability of various identified FN3 domain clones to bind EGFR in an EGF-competitive manner was measured using A431 cells and run in parallel with the A431 binding assay screen. A431 cells were plated at 5,000/well in opaque black 96-well plates and allowed to attach overnight at 37° C., in a humidified 5% CO2 atmosphere. Cells were incubated with 50 μL/well of 1:1,000 diluted bacterial lysate for 1 hour at room temperature in triplicate plates. Biotinylated EGF (Invitrogen, cat. #E-3477) was added to each well to give a final concentration of 30 ng/mL and incubated for 10 minutes at room temperature. Cells were washed 3 times with 150 μL/well of FACS stain buffer. […] Cells were washed 3 times with 150 μL/well of FACS stain buffer, after which wells were filled with 100 μL of FACS stain buffer and read for fluorescence at 600 nm using an Acumen eX3 reader.
(§2) A431 cells were plated at 5,000/well in opaque black 96-well plates and allowed to attach overnight at 37° C., in a humidified 5% CO2 atmosphere. […] Cells were washed 3 times with 150 μL/well of FACS stain buffer, after which wells were filled with 100 μL of FACS stain buffer and read for fluorescence at 600 nm using an Acumen eX3 reader. […]

EGFR on A431 cells = biological target: T2, EGFR on A431 cells (Homo sapiens, UniProt P00533); experiment: A431 cell binding assay; settings: 1 hour room temperature
T2 construct: A431 cells (American Type Culture Collection, cat. #CRL-1555) over-express EGFR; host or cells: A431
Description: To assess the ability of different FN3 domains to bind EGFR in a more physiological context, their ability to bind A431 cells was measured. A431 cells (American Type Culture Collection, cat. #CRL-1555) over-express EGFR with ˜2×10^6 receptors per cell. Cells were plated at 5,000/well in opaque black 96-well plates and allowed to attach overnight at 37° C., in a humidified 5% CO2 atmosphere. FN3 domain-expressing bacterial lysates were diluted 1,000-fold into FACS stain buffer (Becton Dickinson) and incubated for 1 hour at room temperature in triplicate plates. Lysates were removed and cells were washed 3 times with 150 μL/well of FACS stain buffer. Cells were incubated with 50 μL/well of anti-penta His-Alexa488 antibody conjugate (Qiagen) diluted 1:100 in FACS stain buffer for 20 minutes at room temperature. Cells were washed 3 times with 150 μL/well of FACS stain buffer, after which wells were filled with 100 μL of FACS stain buffer and read for fluorescence at 488 nm using an Acumen eX3 reader. […]
as §2, with “488” for “600”

NCI-H292 cells = experiment: NCI-H292 growth assay; type: cell-based, human; settings: 120 hours, CellTiter-Glo
Description: as §1

IC50 (NCI-H322 cells): 39 nM
IC50 [1]: 7.1 nM
EC50 (EGFR on A431 cells): 8.6 nM
IC50 (NCI-H292 cells): 44 nM
B1: P54AR4-47: EGFR-binding FN3 domain, SEQ ID NO: 20 (protein)
chain: LPAPKNLVVSEVTEDSLRLSWGYNGDHFDSFLIQYQESEKVGEAINLTVPGSERSYDLTGLKPGTEYTVSIYGVHNVYKDTNMRGLPLSAEFTT
modifications: EGFR binding FN3 domain
